Experiments:
[1] = tested on: AR(me2asym)TKQTARKSTGGKAPPK
[2] = tested on: AR(me2sym)TKQTARKSTGGKAPPK

Row | Substance | hydroxylation of the peptide by Jmjd6 (peptide g) | Jmj6 hydroxylation activity (standard assay, MALDI-TOF MS) (NPKRSRSREHRR (peptide d)) | position of hydroxylation (MS/MS) (NPKRSRSREHRR (peptide d)) | activity (hydroxylation of the peptide by Jmjd6, MALDI-TOF MS) [1] | hydroxylation of the peptide by Jmjd6 (peptide f) | activity (hydroxylation of the peptide by Jmjd6, MALDI-TOF MS) [2] | hydroxylation of the peptide (MALDI-TOF MS), large scale (NPKRSRSREHRR (peptide d))
1 | N-terminally His6-tagged human Jmjd6 (residues 1-343) | Peptides f and g, which do not contain any lysine residues, were not hydroxylated by Jmjd6. | both the truncated Jmjd6 polypeptides and full-length Jmjd6 hydroxylated peptide d | consistent with the hydroxylation of lysine-3 in peptide d, corresponding to lysine 269 in LUC-like2 | Double hydroxylation no demethylation | Peptides f and g, which do not contain any lysine residues, were not hydroxylated by Jmjd6. | Double hydroxylation no demethylation | –
2 | full-length Jmjd6 (recombinant) | – | both the truncated Jmjd6 polypeptides and full-length Jmjd6 hydroxylated peptide d | – | – | – | – | leaving the assay mixture overnight at room temperature till peptide showed complete hydroxylation

— US20110130449
